In patent US20150320832A1 one finds decrease in cell invasion properties of RDEB-SCC (CC) cells, 3D organotypic model and decrease in cell invasion properties of sporadic SCC (MET-1) cells, 3D organotypic model data, which are given here for one substance.

This test concerns the target Flightless I protein (human, endogenous in MET-1 and CC keratinocytes) (human) (UniProt Q13045). The test can be described thus: cell-based or functional assay.
Chain of UniProt Q13045 (Q13045 whole entry): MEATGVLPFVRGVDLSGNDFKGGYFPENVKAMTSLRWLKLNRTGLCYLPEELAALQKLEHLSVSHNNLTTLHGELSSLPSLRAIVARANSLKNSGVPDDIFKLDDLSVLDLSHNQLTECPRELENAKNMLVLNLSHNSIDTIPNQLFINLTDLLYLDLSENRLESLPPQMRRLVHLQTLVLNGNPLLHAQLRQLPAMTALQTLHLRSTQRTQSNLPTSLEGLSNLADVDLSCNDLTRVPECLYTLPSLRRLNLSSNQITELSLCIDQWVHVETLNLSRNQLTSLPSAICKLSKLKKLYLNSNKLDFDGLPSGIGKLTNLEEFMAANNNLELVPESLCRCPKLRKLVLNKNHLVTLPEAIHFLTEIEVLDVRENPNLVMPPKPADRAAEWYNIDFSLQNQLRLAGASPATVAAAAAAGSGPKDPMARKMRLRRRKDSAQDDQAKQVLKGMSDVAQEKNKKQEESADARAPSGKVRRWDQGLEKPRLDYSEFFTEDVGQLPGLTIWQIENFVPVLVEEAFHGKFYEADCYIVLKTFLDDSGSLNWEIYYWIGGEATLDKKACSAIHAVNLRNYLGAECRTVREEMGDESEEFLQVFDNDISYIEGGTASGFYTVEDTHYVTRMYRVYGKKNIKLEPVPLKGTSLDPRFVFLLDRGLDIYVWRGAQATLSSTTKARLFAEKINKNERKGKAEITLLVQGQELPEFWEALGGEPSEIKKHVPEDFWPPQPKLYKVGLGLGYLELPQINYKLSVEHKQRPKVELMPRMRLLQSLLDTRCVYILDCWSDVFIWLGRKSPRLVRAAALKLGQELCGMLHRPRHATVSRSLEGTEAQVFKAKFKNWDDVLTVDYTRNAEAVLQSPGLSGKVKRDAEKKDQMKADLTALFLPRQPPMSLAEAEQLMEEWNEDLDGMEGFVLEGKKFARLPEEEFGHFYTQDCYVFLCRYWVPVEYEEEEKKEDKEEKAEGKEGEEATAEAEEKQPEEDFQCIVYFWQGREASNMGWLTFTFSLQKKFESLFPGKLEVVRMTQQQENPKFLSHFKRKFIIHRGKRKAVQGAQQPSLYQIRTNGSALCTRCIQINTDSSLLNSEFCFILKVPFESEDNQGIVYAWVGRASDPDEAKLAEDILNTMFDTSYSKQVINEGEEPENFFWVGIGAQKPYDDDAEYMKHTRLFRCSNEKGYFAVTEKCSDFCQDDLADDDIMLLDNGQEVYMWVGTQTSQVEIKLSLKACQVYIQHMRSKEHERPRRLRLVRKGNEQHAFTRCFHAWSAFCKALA

“rFLAP-1 protein (LRRFIP1 (657-784) Protein-H00009208-Q01, Abnova Technologies) (from UniProt Q32MZ4 657-784)” had a decrease in cell invasion properties of RDEB-SCC (CC) cells, 3D organotypic model of 30% and a decrease in cell invasion properties of sporadic SCC (MET-1) cells, 3D organotypic model of 60%.
